Test results from patent US20050287648A1 (UNIVERSITY OF ROCHESTER, published 2005).

Biological target: APOBEC-1 (apolipoprotein B mRNA editing catalytic subunit 1) (Homo sapiens (Human), UniProt P41238 1-236)
Assay: yeast two-hybrid (MatchMaker; his- selection and lacZ filter lift), negative control
Text: The MatchMaker system includes specific protocols for setting up the yeast two hybrid selection, for verifying true His+, LacZ+ transformants and ruling out false positives. Both the selection scheme and verification of true positives follow the manufacturer's recommendations using cDNAs encoding APOBEC-and ACF (FIG. 9).

APOBEC-1 (apolipoprotein B mRNA editing catalytic subunit 1), sequence (P41238 whole entry M80I): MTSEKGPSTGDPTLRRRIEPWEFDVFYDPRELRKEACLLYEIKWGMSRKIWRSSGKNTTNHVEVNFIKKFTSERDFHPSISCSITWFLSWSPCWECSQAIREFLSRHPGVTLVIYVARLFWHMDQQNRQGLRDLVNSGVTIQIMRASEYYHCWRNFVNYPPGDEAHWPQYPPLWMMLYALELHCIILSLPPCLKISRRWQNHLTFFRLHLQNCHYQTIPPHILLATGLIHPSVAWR

binding result: no binding
B1: lamin C (other, UniProt P02545-2 66-230, looked up)
chain: SEEVVSREVSGIKAAYEAELGDARKTLDSVAKERARLQLELSKVREEFKELKARNTKKEGDLIAAQARLKDLEALLNSKEAALSTALSEKRTLEGELHDLRGQVAKLEAALGEAKKQLQDEMLRRVDAENRLQTMKEELDFQKNIYSEELRETKRRHETRLVEID
notes: Negative-control two-hybrid fusion
